Read-outs that look alike come from different tables or passages of the source. Square brackets hold non-standard residues; d marks the D form. Primed or numbered codes have the meaning given here. Ends that are not written are not given here. * marks the point of attachment. Glc = O-glucosyl on Ser side chain (Ser(OGlu)/Ser(OGlc)); NH(3,5-(CF3)2-benzyl) = FC(F)(F)c1cc(CN*)cc(C(F)(F)F)c1; OBzl(3,5-(CF3)2) = FC(F)(F)c1cc(CO*)cc(C(F)(F)F)c1; Glc″ = glucosyl on the serine side-chain oxygen; Dmt = Cc1cc(O)cc(C)c1C[C@H](N)C(=O)O; Nle = CCCC[C@H](N)C(=O)O; NHBn = c1ccc(CN*)cc1
How the values were obtained:
[1] = target: T1, human δ opioid receptor (human, UniProt P41143 1-372); test: competition vs [3H]DPDPE, hDOR cell membranes
T1 construct: whole, on cells; membrane preparations of the transfected cells were used; also called hDOR; DOR
T1 sequence (P41143 whole entry, stated change not applied): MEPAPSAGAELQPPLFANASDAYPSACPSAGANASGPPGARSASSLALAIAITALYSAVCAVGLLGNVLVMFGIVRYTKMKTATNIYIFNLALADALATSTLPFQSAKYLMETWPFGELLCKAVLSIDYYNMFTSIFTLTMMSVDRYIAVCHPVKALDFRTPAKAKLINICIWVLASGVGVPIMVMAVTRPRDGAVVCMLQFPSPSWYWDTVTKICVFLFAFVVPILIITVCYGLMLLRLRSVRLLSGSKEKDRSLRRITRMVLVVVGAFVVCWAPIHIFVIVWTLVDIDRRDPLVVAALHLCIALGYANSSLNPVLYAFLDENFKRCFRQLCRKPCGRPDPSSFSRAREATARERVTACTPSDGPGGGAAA

[2] = target: T2, human NK1 receptor (human, UniProt P25103 1-407); test: competition vs [3H]Substance P, hNK1 CHO cell membranes
T2 construct: whole, on cells; membrane preparations of the transfected cells were used; also called hNK1; human neurokinin-1 receptor
T2 sequence (P25103 whole entry): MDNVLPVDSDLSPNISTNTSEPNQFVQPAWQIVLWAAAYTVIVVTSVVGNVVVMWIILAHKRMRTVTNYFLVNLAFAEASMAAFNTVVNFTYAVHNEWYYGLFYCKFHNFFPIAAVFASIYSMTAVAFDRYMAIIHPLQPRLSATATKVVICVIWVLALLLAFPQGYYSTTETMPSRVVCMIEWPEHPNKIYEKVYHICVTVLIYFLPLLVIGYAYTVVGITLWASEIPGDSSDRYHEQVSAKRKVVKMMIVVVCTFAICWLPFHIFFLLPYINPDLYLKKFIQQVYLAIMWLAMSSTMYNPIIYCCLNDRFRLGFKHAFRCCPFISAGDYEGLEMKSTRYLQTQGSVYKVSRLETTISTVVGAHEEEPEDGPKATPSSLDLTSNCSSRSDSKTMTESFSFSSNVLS

[3] = target: T3, human δ opioid receptor (human, UniProt P41143 1-372); test: cell-based or functional assay
T3 sequence (P41143 whole entry, stated change not applied): as the sequence (P41143 whole entry, stated change not applied) above

[4] = target: T4, rat µ opioid receptor (rat, UniProt P33535 1-398); test: cell-based or functional assay
T4 sequence (P33535 whole entry): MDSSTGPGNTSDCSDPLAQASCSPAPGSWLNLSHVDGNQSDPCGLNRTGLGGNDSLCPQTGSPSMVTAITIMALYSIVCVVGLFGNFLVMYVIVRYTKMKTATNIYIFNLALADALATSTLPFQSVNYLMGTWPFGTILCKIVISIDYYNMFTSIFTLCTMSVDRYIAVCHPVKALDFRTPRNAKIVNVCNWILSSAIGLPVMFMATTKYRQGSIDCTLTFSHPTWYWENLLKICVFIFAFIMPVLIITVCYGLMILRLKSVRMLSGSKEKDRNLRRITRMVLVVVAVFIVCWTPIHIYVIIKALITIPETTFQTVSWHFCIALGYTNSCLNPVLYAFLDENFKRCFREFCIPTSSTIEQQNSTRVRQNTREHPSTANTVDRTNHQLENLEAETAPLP

[5] = target: µ opioid receptor of the guinea pig isolated ileum (guinea pig); test: cell-based or functional assay
[6] = target: guinea pig NK1 receptor (guinea pig, UniProt P30547 1-407); test: cell-based or functional assay
Target sequence in this assay (P30547 whole entry): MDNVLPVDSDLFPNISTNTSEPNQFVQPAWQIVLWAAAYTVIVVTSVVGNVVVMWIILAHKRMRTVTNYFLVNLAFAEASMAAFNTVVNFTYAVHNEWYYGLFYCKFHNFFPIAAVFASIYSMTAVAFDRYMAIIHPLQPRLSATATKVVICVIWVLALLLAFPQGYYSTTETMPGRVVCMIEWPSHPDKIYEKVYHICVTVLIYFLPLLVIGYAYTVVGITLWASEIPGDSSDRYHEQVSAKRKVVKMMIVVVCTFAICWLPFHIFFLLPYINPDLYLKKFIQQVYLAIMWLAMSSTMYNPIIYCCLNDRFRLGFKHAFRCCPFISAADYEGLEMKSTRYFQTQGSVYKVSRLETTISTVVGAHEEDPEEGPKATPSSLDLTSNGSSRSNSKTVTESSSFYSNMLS

[7] = target: T3, human δ opioid receptor; test: cell-based or functional assay; remark: listed apart in the source
[8] = target: T4, rat µ opioid receptor; test: cell-based or functional assay; remark: listed apart in the source
[9] = target: T3, human δ opioid receptor; test: competition vs [3H]DPDPE, membranes of hDOR-transfected HN9.10 cells
[10] = target: T3, human δ opioid receptor; test: as above; remark: listed apart in the source
[11] = target: T5, rat NK1 receptor (rat, UniProt P14600 1-407); test: competition vs [3H]substance P, membranes of rNK1-transfected CHO cells
T5 construct: whole, on cells; Assayed as membrane preparations of transfected CHO cells; also called rNK1; rNK-1
T5 sequence (P14600 whole entry): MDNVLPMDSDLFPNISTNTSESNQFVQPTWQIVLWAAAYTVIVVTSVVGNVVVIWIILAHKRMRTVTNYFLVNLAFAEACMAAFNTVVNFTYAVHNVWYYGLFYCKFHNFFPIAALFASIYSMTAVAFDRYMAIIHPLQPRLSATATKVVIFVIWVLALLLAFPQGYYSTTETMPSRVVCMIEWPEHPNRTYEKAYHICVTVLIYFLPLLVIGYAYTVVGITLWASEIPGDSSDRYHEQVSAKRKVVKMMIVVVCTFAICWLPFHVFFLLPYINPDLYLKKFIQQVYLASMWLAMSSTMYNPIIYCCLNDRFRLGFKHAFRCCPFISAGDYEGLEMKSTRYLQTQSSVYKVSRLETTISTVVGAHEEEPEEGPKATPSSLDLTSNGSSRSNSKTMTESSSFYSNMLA

[12] = target: T5, rat NK1 receptor; test: as above; remark: listed apart in the source
[13] = target: T3, human δ opioid receptor; test: ratio of Ki at rMOR to Ki at hDOR
[14] = target: T4, rat µ opioid receptor; test: competition vs [3H]DAMGO, membranes of rMOR-transfected HN9.10 cells
[15] = target: T6, µ opioid receptor of the guinea pig isolated ileum (guinea pig, UniProt P97266 1-98); test: cell-based or functional assay
T6 sequence (P97266 whole entry): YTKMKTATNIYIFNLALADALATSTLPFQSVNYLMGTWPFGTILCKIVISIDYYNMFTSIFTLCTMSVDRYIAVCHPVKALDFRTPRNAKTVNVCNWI

[16] = target: T7, guinea pig NK1 receptor (guinea pig, UniProt P30547 1-407); test: cell-based or functional assay; remark: listed apart in the source
T7 sequence (P30547 whole entry): as the sequence (P30547 whole entry) above

[17] = target: T1, human δ opioid receptor; test: competition vs [3H]DPDPE, hDOR cell membranes; remark: listed apart in the source
[18] = target: T2, human NK1 receptor; test: competition vs [3H]Substance P, hNK1 CHO cell membranes; remark: listed apart in the source
[19] = target: T8, rat NK1 receptor (rat, UniProt P14600 1-407); test: competition vs [3H]Substance P, rNK1 CHO cell membranes
T8 construct: whole, on cells; membrane preparations of the transfected cells were used; also called rNK1; rNK-1
T8 sequence (P14600 whole entry): as the sequence (P14600 whole entry) above

[20] = target: T1, human δ opioid receptor; test: cell-based or functional assay; remark: listed apart in the source
[21] = target: T9, rat µ opioid receptor (rat, UniProt P33535 1-398); test: cell-based or functional assay; remark: listed apart in the source
T9 sequence (P33535 whole entry): as the sequence (P33535 whole entry) above

[22] = target: T6, µ opioid receptor of the guinea pig …; test: cell-based or functional assay; remark: listed apart in the source
[23] = target: T7, guinea pig NK1 receptor; test: cell-based or functional assay; remark: listed apart in the source
[24] = target: T9, rat µ opioid receptor; test: competition vs [3H]DAMGO, rMOR cell membranes
[25] = target: T1, human δ opioid receptor; test: competition vs [3H]DPDPE, hDOR cell membranes; remark: listed apart in the source
[26] = target: T2, human NK1 receptor; test: competition vs [3H]Substance P, hNK1 CHO cell membranes; remark: listed apart in the source
[27] = target: T8, rat NK1 receptor; test: competition vs [3H]Substance P, rNK1 CHO cell membranes; remark: listed apart in the source
[28] = target: T6, µ opioid receptor of the guinea pig …; test: cell-based or functional assay; remark: listed apart in the source
[29] = target: T7, guinea pig NK1 receptor; test: cell-based or functional assay; remark: listed apart in the source
[30] = target: T1, human δ opioid receptor; test: cell-based or functional assay; remark: listed apart in the source
[31] = target: T9, rat µ opioid receptor; test: cell-based or functional assay; remark: listed apart in the source
[32] = target: T6, µ opioid receptor of the guinea pig …; test: cell-based or functional assay; remark: listed apart in the source
[33] = target: T7, guinea pig NK1 receptor; test: cell-based or functional assay; remark: listed apart in the source
[34] = target: T1, human δ opioid receptor; test: competition vs [3H]DPDPE, hDOR cell membranes; remark: listed apart in the source
[35] = target: T8, rat NK1 receptor; test: competition vs [3H]Substance P, rNK1 CHO cell membranes; remark: listed apart in the source

B1: DmtDAlaGlyPheNleProLeuTrpNMeBn(CF3)2 (peptide)
peptide: YAGFXPLW
modifications: Dmt at 1 (written Y); D-Ala at 2; Nle at 5 (written X); C-terminal NMe-3,5-Bzl(CF3)2 amide
notes: also called TY052
[1]
  Ki: 0.46 nM
[2]
  Ki: 0.21 nM

## H-Y[dA]GFMPLW-{OBzl(3,5-(CF3)2)} (also: TFA salt, TFA salt; also called TY005; TY5) [H-Tyr-D-Ala-Gly-Phe-Met-Pro-Leu-Trp-O-3,5-Bzl(CF3)2]
[3]
  [35S]GTP-γ-S binding EC50: 2.9 nM
  [35S]GTP-γ-S binding Emax: 51%
  [35S]GTP-γ-S binding LogEC50: -8.54
[4]
  [35S]GTP-γ-S binding Emax: 45%
[5]
  GPI (µ) opioid agonist IC50: 359 nM
[6]
  Substance P GPI antagonist Ke: 24.7 nM
[7]
  [35S]GTPγS binding EC50: 2.9 nM
  [35S]GTPγS binding Emax: 48%
  [35S]GTPγS binding LogEC50: -8.5
[8]
  [35S]GTPγS binding Emax: 46%
[9]
  Ki: 2.8 nM
  LogIC50: -8.22
[10]
  Ki: 2.8 nM
[11]
  IC50: 6.4 nM
  LogIC50: -8.22
[12]
  Ki: 0.29 nM
  LogIC50: -9

## H-Y[dA]GFGPLW-{OBzl(3,5-(CF3)2)} (also: TFA salt, TFA salt; also called TY006) [H-Tyr-D-Ala-Gly-Phe-Gly-Pro-Leu-Trp-O-3,5-Bzl(CF3)2]
[3]
  [35S]GTP-γ-S binding EC50: 50.2 nM
  [35S]GTP-γ-S binding Emax: 35%
  [35S]GTP-γ-S binding LogEC50: -7.3
[4]
  [35S]GTP-γ-S binding EC50: 41.7 nM
  [35S]GTP-γ-S binding Emax: 39%
  [35S]GTP-γ-S binding LogEC50: -7.38
[5]
  GPI (µ) opioid agonist IC50: 384 nM
[6]
  Substance P GPI agonist (A50), contraction relative to KCl: 0 % at 1 µM
  Substance P GPI antagonist Ke: 5.4 nM
[13]
  Ki(µ)/Ki(δ): 0.75
[14]
  Ki: 27 nM
  LogIC50: -7.24
[9]
  Ki: 36.1 nM
  LogIC50: -7.11
[11]
  IC50: 15.6 nM
  LogIC50: -7.83

## H-Y[dA]GF[dF]PLW-{OBzl(3,5-(CF3)2)} (also: TFA salt, TFA salt; also called TY007) [H-Tyr-D-Ala-Gly-Phe-D-Phe-Pro-Leu-Trp-O-3,5-Bzl(CF3)2]
[3]
  [35S]GTP-γ-S binding EC50: 16.8 nM
  [35S]GTP-γ-S binding Emax: 26%
  [35S]GTP-γ-S binding LogEC50: -7.78
[4]
  [35S]GTP-γ-S binding EC50: 345 nM
  [35S]GTP-γ-S binding Emax: 22%
  [35S]GTP-γ-S binding LogEC50: -6.46
[5]
  GPI (µ) opioid agonist, % at 1 µM: 9 % at 1 µM
[6]
  Substance P GPI agonist (A50), contraction relative to KCl: 0 % at 1 µM
  Substance P GPI antagonist Ke: 69.6 nM
[13]
  Ki(µ)/Ki(δ): 4.1
[14]
  Ki: 381 nM
  LogIC50: -6.09
[9]
  Ki: 93 nM
  LogIC50: -6.7
[11]
  IC50: 66.7 nM
  LogIC50: -7.22

## H-Y[dA]GFMPLW-NHBn (also: TFA salt, TFA salt; also called TY025) [H-Tyr-D-Ala-Gly-Phe-Met-Pro-Leu-Trp-NH-Bzl]
[7]
  [35S]GTPγS binding EC50: 2.6 nM
  [35S]GTPγS binding LogEC50: -8.6
[8]
  [35S]GTPγS binding Emax: 47%
[10]
  Ki: 0.44 nM
  LogIC50: -9.1
[12]
  Ki: 700 nM
  LogIC50: -5.6

## [Dmt][dA]GFMPLW-{OBzl(3,5-(CF3)2)} (also called TY033) [DmtDAlaGlyPheMetProLeuTrpOBn(CF3)2]
[15]
  GPI/LMMP IC50: 100 nM
[16]
  GPI/LMMP Substance P antagonist Ke: 24.5 nM
[17]
  Ki: 0.22 nM
[18]
  Ki: 1.2 nM
[19]
  Ki: 0.96 nM

## Y[dA]GFS(Glc)PLW-{NH(3,5-(CF3)2-benzyl)} (also called TY042) [TyrDAlaGlyPheSer(OGlu)ProLeuTrpNHBn(CF3)2]
[20]
  GTP binding EC50: 51.9 nM
  GTP binding Emax: 47%
[21]
  GTP binding EC50: 176 nM
  GTP binding Emax: 28%
[22]
  GPI/LMMP IC50: 1890 nM
[23]
  GPI/LMMP SP antagonist Ke: 2.83 nM
[24]
  Ki: 256 nM
[25]
  Ki: 58.5 nM
[26]
  Ki: 0.00027 nM
[27]
  Ki: 1.5 nM

## Y[dA]GFMPLW-{OBzl(3,5-(CF3)2)} (also called TY005) [TyrDAlaGlyPheMetProLeuTrpOBn(CF3)2]
[28]
  GPI (µ) IC50: 360 nM
[29]
  GPI Substance P antagonist Ke: 25 nM
[30]
  GTP binding EC50: 2.9 nM
  GTP binding Emax: 47.6%
[31]
  GTP binding Emax: 45.6%
[32]
  GPI/LMMP IC50: 359 nM
[33]
  GPI/LMMP SP antagonist Ke: 24.7 nM
[15]
  GPI/LMMP IC50: 359 nM
[16]
  GPI/LMMP Substance P antagonist Ke: 24.7 nM
[34]
  Ki: 2.8 nM
[17]
  Ki: 2.8 nM
[35]
  IC50: 6.4 nM
[19]
  Ki: 0.2 nM

B2: DmtDAlaGlyPheNleProLeuTrpNHBn-2,4-(OMe)2 (peptide)
peptide: YAGFXPLW
modifications: not fully specified; Dmt at 1 (written Y); D-Ala at 2; Nle at 5 (written X); C-terminal dimethoxybenzyl amide (NHBn-2,4-(OMe)2 in Table 39, NH-3,5-Bn(OMe)2 in Table 31)
notes: also called TY054
[1]
  Ki: 0.15 nM
[2]
  Ki: 0.95 nM

## YAGFXPLW (D-Ala at 2; Nle at 5 (written X); C-terminal NH-3,5-Bzl(CF3)2 amide, also called TY045) [TyrDAlaGlyPheNleProLeuTrpNHBn(CF3)2]
[20]
  GTP binding EC50: 5 nM
  GTP binding Emax: 125%
[22]
  GPI/LMMP IC50: 463 nM
[23]
  GPI/LMMP SP antagonist Ke: 40.8 nM
[25]
  Ki: 1 nM
[26]
  Ki: 0.0028 nM

## Y[dA]GF[Nle]S(Glc″)LW-{NH(3,5-(CF3)2-benzyl)} (also called TY044) [TyrDAlaGlyPheNleSer(OGlu)LeuTrpNHBn(CF3)2]
[20]
  GTP binding Emax: 162%
[21]
  GTP binding EC50: 380 nM
  GTP binding Emax: 85%
[22]
  GPI/LMMP IC50: 249 nM
[23]
  GPI/LMMP SP antagonist Ke: 18.4 nM
[24]
  Ki: 3370 nM
[26]
  Ki: 1.3 nM

## Y[dA]GFMPLW-NHBn (also called TY025) [TyrDAlaGlyPheMetProLeuTrpNHBn]
[28]
  GPI (µ) IC50: 61 nM
[29]
  GPI Substance P antagonist Ke: 9.9 nM
[15]
  GPI/LMMP IC50: 61.1 nM
[16]
  GPI/LMMP Substance P antagonist Ke: 9.9 nM
[17]
  Ki: 0.44 nM

— patent publication US8026218 (UNIVERSITY OF ARIZONA, dated 2011)
